Laboratory results taken from patent US20160083713.

T1: Protein 8: Exiguobacterium PAL-like domain with N-terminal TAP purification tag and HRV14 3C protease site linker
T1 sequence: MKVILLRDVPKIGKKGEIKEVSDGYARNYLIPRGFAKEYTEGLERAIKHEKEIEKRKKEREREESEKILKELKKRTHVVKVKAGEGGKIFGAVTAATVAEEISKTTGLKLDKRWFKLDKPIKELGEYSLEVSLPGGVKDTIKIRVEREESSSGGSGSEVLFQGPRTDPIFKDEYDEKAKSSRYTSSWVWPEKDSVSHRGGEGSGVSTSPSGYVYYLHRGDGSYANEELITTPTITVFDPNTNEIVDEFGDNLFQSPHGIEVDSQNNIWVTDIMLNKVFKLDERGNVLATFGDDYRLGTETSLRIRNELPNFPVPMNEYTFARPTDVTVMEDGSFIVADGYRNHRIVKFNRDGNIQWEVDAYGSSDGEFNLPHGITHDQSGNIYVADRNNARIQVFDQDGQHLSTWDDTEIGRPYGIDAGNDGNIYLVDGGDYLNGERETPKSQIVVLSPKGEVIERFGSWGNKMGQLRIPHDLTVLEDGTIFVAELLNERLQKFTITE

T2: Protein 3: Erythrobacter sp. SD-21 PAL-like domain with N-terminal TAP purification tag (ribosomal protein L9 from T. maritima) and HRV14 3C protease site linker
T2 sequence: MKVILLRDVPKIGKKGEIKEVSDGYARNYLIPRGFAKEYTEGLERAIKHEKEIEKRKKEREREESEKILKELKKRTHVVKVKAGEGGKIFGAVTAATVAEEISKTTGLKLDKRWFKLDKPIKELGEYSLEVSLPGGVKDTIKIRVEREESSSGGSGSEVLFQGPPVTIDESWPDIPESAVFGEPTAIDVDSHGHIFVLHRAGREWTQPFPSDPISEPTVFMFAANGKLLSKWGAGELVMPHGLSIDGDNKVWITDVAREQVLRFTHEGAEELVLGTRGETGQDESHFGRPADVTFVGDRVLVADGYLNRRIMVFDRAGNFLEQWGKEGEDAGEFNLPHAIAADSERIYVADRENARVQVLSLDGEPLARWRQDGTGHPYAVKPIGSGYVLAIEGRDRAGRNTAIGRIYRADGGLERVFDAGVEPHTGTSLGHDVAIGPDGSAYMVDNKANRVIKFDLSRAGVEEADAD

T3: TAP tagged C-terminal Gly extended amylin analog model peptide (SEQ ID NO:17), precursor form
T3 chain: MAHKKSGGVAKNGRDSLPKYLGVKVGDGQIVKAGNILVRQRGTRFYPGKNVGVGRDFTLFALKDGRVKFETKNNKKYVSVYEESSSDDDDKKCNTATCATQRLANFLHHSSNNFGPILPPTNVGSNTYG

T4: TAP tagged amylin analog model peptide (SEQ ID NO:17), alpha-hydroxyglycine intermediate form
T4 chain: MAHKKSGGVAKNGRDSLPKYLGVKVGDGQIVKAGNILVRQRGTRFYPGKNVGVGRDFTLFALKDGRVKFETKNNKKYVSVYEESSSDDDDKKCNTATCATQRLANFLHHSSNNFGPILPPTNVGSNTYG


How the values were obtained:
[1] = system: T1, Protein 8: Exiguobacterium PAL-like domain with N-terminal TAP purification tag and HRV14 3C protease site linker
[2] = system: T2, Protein 3: Erythrobacter sp. SD-21 PAL-like domain with N-terminal TAP purification tag (ribosomal protein L9 from T. maritima) and HRV14 3C protease site linker
[3] = biological target: C-terminally Gly-extended Pramlintide (SEQ ID NO: 25)
[4] = biological target: T3, TAP tagged C-terminal Gly extended …
[5] = biological target: T4, TAP tagged amylin analog model peptide …
[6] = biological target: C-terminal alpha-hydroxyglycine extended Pramlintide (alpha-hydroxylated SEQ ID NO:25)

Molecule	conversion to the alpha amidated form, LC-MS, co-incubation with rat PHM at 37 C [5]	conversion of the alpha-hydroxyglycine intermediate to alpha amidated Pramlintide, LC-MS, 37 C, 1 h [6]	other results
TAP tagged HRV14 3C protease (from WO 2008/043847)			proteolytic cleavage at the linker, SDS-PAGE, overnight, enzyme to substrate 1:25 [1]: two fragments corresponding to the mature Exiguibacterium PAL-like domain (SEQ ID NO:2) (upper band) and the released TAP tag (SEQ ID NO:7-SEQ ID NO:8) (lower band) was present in the application; proteolytic cleavage at the linker, LC-MS and SDS-PAGE, overnight at 30 C, enzyme to substrate 1:25 [2]: resulted in two fragments determined to 33323 Da and 18284.78 Da corresponding to the released PAL-like domain ... and to the released purification tag and HRV14 3C linker
rat PHM domain (amino acids 36 to 497 of the 976 aa full-length rat PAM sequence), His tagged (protein) FKETTRSFSNECLGTIGPVTPLDASDFALDIRMPGVTPKESDTYFCMSMRLPVDEEAFVIDFKPRASMDTVHHMLLFGCNMPSSTGSYWFCDEGTCTDKANILYAWARNAPPTRLPKGVGFRVGGETGSKYFVLQVHYGDISAFRDNHKDCSGVSVHLTRVPQPLIAGMYLMMSVDTVIPPGEKVVNADISCQYKMYPMHVFAYRVHTHHLGKVVSGYRVRNGQWTLIGRQNPQLPQAFYPVEHPVDVTFGDILAARCVFTGEGRTEATHIGGTSSDEMCNLYIMYYMEAKYALSFMTCTKNVAPDMFRTIPAEANIPIPVKPDMVMMHGHHKEAENKEKSALMQQPKQGEEEVLEQGDFYSLLSKLLGEREDVHVHKYNPTEKTESGSDLVAEIANVVQKKDLGRSDAREGAEHEEWGNAILVRDRIHRFHQLESTLRPAESRAFSFQQPGEGPWEPEPSG			conversion of Gly-extended Pramlintide to the alpha-hydroxyglycine form, LC-MS, enzyme to substrate 1:20 (w/w), 37 C, 2 h [3]: it was verified that the intermediate alpha-hydroxyglycine form of Pramlintide was obtained; conversion of the C-terminal Gly to alpha-hydroxyglycine, LC-MS after 2 hours at 37 C [4]: the vast majority of the model peptide was on the intermediate form comprising a α-hydroxyglycine in the C-terminal
Protein 10: Planctomyces DSM 8797 PAL-like domain with N-terminal TAP purification tag and HRV14 3C protease site linker (protein) MKVILLRDVPKIGKKGEIKEVSDGYARNYLIPRGFAKEYTEGLERAIKHEKEIEKRKKEREREESEKILKELKKRTHVVKVKAGEGGKIFGAVTAATVAEEISKTTGLKLDKRWFKLDKPIKELGEYSLEVSLPGGVKDTIKIRVEREESSSGGSGSEVLFQGPADKIDFEPAAINIELPEGLALGPASAVDFDSKGRMYLFHRGPQPILVFDQSGKFVRSWGDKLISQAHGLRVAPDETIWVTDIGNHMVFQFNPEGKLLLALGQAGKPGDSQDQFNKPTDIAFGPQGEFYISDGYGNSRVMKFAANGKNLGQWGTPGKGPGEFNLPHSILVDAKGRVLVGDRENDRVQIFDLEGNLLEIWTGFAPYGMEFDSRGNLFVADGRANKVLQLNASGKVENSWGKTGKEPGEYNLPHMLAVDAAGNLFVTEIGGKRLQKLQRK	With protein 10 total conversion of the precursor was observed already after 1 h-2 h incubation		
Protein 3: Erythrobacter sp. SD-21 PAL-like domain with N-terminal TAP purification tag (ribosomal protein L9 from T. maritima) and HRV14 3C protease site … (protein) MKVILLRDVPKIGKKGEIKEVSDGYARNYLIPRGFAKEYTEGLERAIKHEKEIEKRKKEREREESEKILKELKKRTHVVKVKAGEGGKIFGAVTAATVAEEISKTTGLKLDKRWFKLDKPIKELGEYSLEVSLPGGVKDTIKIRVEREESSSGGSGSEVLFQGPPVTIDESWPDIPESAVFGEPTAIDVDSHGHIFVLHRAGREWTQPFPSDPISEPTVFMFAANGKLLSKWGAGELVMPHGLSIDGDNKVWITDVAREQVLRFTHEGAEELVLGTRGETGQDESHFGRPADVTFVGDRVLVADGYLNRRIMVFDRAGNFLEQWGKEGEDAGEFNLPHAIAADSERIYVADRENARVQVLSLDGEPLARWRQDGTGHPYAVKPIGSGYVLAIEGRDRAGRNTAIGRIYRADGGLERVFDAGVEPHTGTSLGHDVAIGPDGSAYMVDNKANRVIKFDLSRAGVEEADAD	near complete conversion to the alpha amidated form required 5 hours incubation with the protein 3 enzyme		
Erythrobacter PAL-like domain (SEQ ID NO: 1) (protein) GPPVTIDESWPDIPESAVFGEPTAIDVDSHGHIFVLHRAGREWTQPFPSDPISEPTVFMFAANGKLLSKWGAGELVMPHGLSIDGDNKVWITDVAREQVLRFTHEGAEELVLGTRGETGQDESHFGRPADVTFVGDRVLVADGYLNRRIMVFDRAGNFLEQWGKEGEDAGEFNLPHAIAADSERIYVADRENARVQVLSLDGEPLARWRQDGTGHPYAVKPIGSGYVLAIEGRDRAGRNTAIGRIYRADGGLERVFDAGVEPHTGTSLGHDVAIGPDGSAYMVDNKANRVIKFDLSRAGVEEADAD		could almost completely convert the peptide substrate to fully alpha-amidated peptide using a enzyme to substrate ratio of 1:100	
Planctomyces PAL-like domain (SEQ ID NO: 4) (protein) GPADKIDFEPAAINIELPEGLALGPASAVDFDSKGRMYLFHRGPQPILVFDQSGKFVRSWGDKLISQAHGLRVAPDETIWVTDIGNHMVFQFNPEGKLLLALGQAGKPGDSQDQFNKPTDIAFGPQGEFYISDGYGNSRVMKFAANGKNLGQWGTPGKGPGEFNLPHSILVDAKGRVLVGDRENDRVQIFDLEGNLLEIWTGFAPYGMEFDSRGNLFVADGRANKVLQLNASGKVENSWGKTGKEPGEYNLPHMLAVDAAGNLFVTEIGGKRLQKLQRK		could almost completely convert the peptide substrate to fully alpha-amidated peptide using a enzyme to substrate ratio of 1:100	
